Series [1] deals with p53/p21 checkpoint in HCT116 (p21+/+ and p21−/−) cells. The series can be described thus: Induction of the G1/S checkpoint, protein immunoblot. It is filed as cell-based, human. The source says: HCT116 (p21+/+ and p21−/−) cells were exposed to the chromoprotein at various concentrations. […] Activation of the DNA damage checkpoint by the Actinomadura sp. […] 21G792 chromoprotein as shown by the cleavage of poly ADP ribose […] (PARP) (FIG. 23B). This is consistent with the lower IC50 value in the p21−/− cells.

Series [2] addresses T1, Human PGP (MDR1) (Homo sapiens, UniProt P08183).
T1 construct: cells expressing clinically relevant levels of MDR1 (KB-8-5 cells) remain sensitive to the complex; endogenous in cells; host or cells: KB (P-GP -), KB-8-5 (+), KB-V-1 (+++)
The series can be described thus: Transport by P-GP (MDR-1). It is filed as cell-based. The settings on record: result in words. The source says: Human PGP (MDR1) is an ATP-dependent efflux pump which is capable of transporting many drugs across cell membranes. High level expression of this protein has been linked to multiple drug resistance of tumors. […] The protein component of the chromoprotein probably protects the chromophore from drug efflux mediated by MDR1, and may be responsible for the beneficial antitumor effects in colon cell lines which often express MDR1.

For series [3], the system named is HCT116 colon carcinoma cells. The series can be described thus: Uptake of FITC-tagged chromoprotein and apoprotein, fluorescent microscopy / flow cytometry. The class given is cell-based. The protocol: To determine the mechanism by which the chromoprotein enters cells and exerts its biological activity, the chromoprotein was labeled with a fluorescent tag (FITC) using EZ-Label fluorescent labeling kit (Pierce Biotechnology), according to the manufacturer's recommendation. […] Uptake of labeled material by HCT116 colon carcinoma cells was studied by fluorescent microscopy. Optimum incubation time with cells was 3-6 hours. […] Even though nuclear accumulation is low, the amount is most likely sufficient for biological activity given the potency of the complex.
To determine whether an intact complex of chromophore and apoprotein is required for cellular and nuclear entry, the chromoprotein and apoprotein were labeled with FITC. Uptake of labeled material was studied by fluorescent microscopy. Uptake was similar for both apoprotein and chromoprotein.
To determine whether the entry of chromoprotein into cells is mediated by a saturable (e.g. cell surface receptor-dependent) process, HCT116 cells were incubated with FITC-labeled chromoprotein (FIG. 37, right panel) or apoprotein (FIG. 37, left panel) in the absence or presence of 10-fold excess of unlabeled reagent (unlabelled chromoprotein or apoprotein, respectively). Cells were analysed by fluorescent microscopy (left) or flow cytometry (right). […] Furthermore, a single homogeneous peak observed in flow cytometry histograms indicated uniform uptake of labeled reagent by all cells. Numbers in the histograms are mean channel numbers (FITC fluorescence).
Other means by which a protein complex can enter cells is pinocytosis, where caveolae in the surface of the cell pinch off to form pinosomes that are free within the cytoplasm of the cell. Since pinocytosis is an energy-dependent process that requires a functional tubulin cytoskeletal network, we examined the effect of sodium azide, an energy uncoupling agent and nocodazole, an agent which disrupts the tubulin cytoskeleton on cellular uptake. HCT116 cells were treated with FITC-labeled apoprotein in the absence or presence of sodium azideor nocodazole. […] Since the data appears to rule out a receptor-mediated process, pinocytosis is most likely involved.

T1 sequence (P08183 whole entry): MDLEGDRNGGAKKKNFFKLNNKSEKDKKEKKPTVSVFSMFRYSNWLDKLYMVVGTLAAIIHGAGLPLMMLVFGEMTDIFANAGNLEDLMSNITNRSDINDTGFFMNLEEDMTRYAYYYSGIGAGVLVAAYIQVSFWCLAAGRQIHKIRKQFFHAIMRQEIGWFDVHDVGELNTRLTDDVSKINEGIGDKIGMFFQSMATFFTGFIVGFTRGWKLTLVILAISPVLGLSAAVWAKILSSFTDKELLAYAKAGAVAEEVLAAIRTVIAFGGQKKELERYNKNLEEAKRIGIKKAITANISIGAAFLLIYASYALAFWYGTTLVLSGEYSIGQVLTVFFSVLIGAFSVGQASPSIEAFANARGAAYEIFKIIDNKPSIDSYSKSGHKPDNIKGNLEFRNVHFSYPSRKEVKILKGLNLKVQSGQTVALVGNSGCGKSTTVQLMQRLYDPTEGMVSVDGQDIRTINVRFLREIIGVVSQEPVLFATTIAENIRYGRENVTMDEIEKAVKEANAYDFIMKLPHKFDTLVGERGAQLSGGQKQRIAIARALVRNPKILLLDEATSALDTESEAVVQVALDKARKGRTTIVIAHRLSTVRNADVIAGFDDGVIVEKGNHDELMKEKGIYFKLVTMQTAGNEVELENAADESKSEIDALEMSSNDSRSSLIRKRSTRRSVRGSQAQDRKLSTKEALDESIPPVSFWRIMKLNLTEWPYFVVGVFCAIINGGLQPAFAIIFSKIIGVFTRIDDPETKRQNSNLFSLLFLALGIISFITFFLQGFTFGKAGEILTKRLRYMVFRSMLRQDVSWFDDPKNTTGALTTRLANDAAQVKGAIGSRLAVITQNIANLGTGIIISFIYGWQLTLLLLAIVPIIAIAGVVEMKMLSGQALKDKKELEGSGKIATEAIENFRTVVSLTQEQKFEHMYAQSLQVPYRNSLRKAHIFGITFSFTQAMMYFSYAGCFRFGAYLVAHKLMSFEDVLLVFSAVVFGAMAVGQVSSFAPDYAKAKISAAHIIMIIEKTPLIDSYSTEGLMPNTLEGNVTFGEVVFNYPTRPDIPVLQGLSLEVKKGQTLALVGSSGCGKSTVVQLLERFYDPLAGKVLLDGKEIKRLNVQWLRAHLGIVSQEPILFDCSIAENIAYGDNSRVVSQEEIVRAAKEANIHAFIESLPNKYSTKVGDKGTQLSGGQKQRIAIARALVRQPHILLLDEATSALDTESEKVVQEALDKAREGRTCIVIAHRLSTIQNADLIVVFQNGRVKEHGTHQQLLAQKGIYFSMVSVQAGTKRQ

B1: Actinomadura sp. 21G792 chromoprotein: non-covalent complex of an apoprotein and a chromophore comprising a nine-membered enediyne, produced by Actinomadura sp. 21G792 (NRRL 30778) (protein)
chain: DTVTVNYDCVGYPSDIAVTIDAPATAGVGDTATFEVSSVVTTGAPQDLPAGEVVTDMAIVVGGAQSGTITASGLTNEATPAGQPVNMVGGEAQITFTSAGSVTFTPSTTTQVDNGAQCTVVGEAPVGATTVVS
On to B1, for which the “induction of the p21 protein” value in series [1] (HCT116 p21+/+ and p21−/−) is “Induction of the p21 protein was seen in the p21+/+ cells only”. For the same molecule, the “induction of apoptosis (PARP cleavage)” value in series [1] (p21−/− compared with p21+/+ cells) is given as “induction of apoptosis was preferentially observed in p21−/− cells compared with p21+/+ cells”. Moreover, the MDR1 substrate result in series [2] is on record as “poor MDR1 substrate”. For the same molecule, the “competition of label by unlabeled reagent” value in series [3] (10-fold excess of unlabeled reagent) was “No competition of label was observed”. In series [3] (FITC labeled), the “biological activity upon FITC labeling” value is “No loss of biological activity” and the “uptake of labeled material, apoprotein versus chromoprotein” value is “similar”. Besides, the “cellular localisation of label” value in series [3] (FITC labeled, fluorescent microscopy) is “Most of the label appeared in the cytoplasm, although weak staining was also observed in the nucleus”.

The record behind these values is US20100028952A1, “FERMENTATION AND PURIFICATION OF ACTINOMADURA CHROMOPROTEIN AND RELATED SPECIES” (WYETH, priority 2006, published 2010).
